According to patent US20110236427:

Columns and labels:
[1] = tested on: GST-NR2F6 fusion protein, full-length, wild-type
[2] = tested on: GST-NR2F6 fusion protein, full-length, S89A mutant
[3] = tested on: GST-NR2F6 fusion protein, full-length, S83A mutant
Sequence of GST-NR2F6 fusion protein, full-length, S83A mutant (chain, as listed by the source S83A): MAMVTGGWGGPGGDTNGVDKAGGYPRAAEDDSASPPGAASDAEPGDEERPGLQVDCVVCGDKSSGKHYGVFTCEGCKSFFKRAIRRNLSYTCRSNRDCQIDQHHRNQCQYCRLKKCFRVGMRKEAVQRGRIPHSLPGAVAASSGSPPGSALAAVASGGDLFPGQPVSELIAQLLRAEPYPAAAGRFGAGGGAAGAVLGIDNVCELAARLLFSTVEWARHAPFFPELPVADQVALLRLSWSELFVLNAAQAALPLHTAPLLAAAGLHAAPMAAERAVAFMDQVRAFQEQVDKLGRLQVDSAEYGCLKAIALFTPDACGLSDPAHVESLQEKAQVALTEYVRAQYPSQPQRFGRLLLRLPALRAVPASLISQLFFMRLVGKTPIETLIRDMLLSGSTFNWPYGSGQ

Sequence of recombinant PKCtheta (Q04759 whole entry): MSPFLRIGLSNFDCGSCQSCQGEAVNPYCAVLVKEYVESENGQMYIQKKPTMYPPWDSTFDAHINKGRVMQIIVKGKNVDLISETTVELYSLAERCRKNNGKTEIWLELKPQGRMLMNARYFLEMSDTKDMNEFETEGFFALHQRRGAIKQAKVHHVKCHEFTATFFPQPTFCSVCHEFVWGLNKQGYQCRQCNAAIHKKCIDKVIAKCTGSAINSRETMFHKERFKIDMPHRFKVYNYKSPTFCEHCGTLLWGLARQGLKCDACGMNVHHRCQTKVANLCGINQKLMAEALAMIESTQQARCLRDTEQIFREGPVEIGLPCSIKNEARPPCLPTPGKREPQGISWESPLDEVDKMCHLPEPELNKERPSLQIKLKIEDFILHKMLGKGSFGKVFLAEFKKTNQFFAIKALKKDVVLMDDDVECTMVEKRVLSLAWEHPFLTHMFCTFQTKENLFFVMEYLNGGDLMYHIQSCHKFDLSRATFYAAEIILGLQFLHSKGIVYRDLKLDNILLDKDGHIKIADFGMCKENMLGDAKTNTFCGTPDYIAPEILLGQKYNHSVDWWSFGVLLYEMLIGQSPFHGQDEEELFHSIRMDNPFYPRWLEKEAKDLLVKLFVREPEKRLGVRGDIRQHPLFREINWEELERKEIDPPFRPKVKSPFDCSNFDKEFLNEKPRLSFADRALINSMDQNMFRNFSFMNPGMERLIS
Sequence of GST-NR2F6 fusion protein, full-length, wild-type (chain, as listed by the source): as the sequence (chain, as listed by the source S83A) above, with A83S counted along it
Sequence of GST-NR2F6 fusion protein, full-length, S89A mutant (chain, as listed by the source S89A): as the sequence (chain, as listed by the source S83A) above, with A83S, S89A counted along it

Row | Substance | phosphorylation (32P incorporation), in vitro protein kinase assay [1] | phosphorylation (32P incorporation), in vitro protein kinase assay [2] | phosphorylation (32P incorporation), in vitro protein kinase assay [3]
1 | Protein kinase A (PKA) | (but not PKCzeta or PKA) | – | –
2 | recombinant PKCalpha | PKCalpha, delta and theta (but not PKCzeta or PKA) were able to phosphorylate recombinant NR2F6 in vitro | (but not at Ser-89) | This phosphorylation was lost after the predicted phosphorylation site at Ser-83 (but not at Ser-89) was mutated in the full-length NR2F6 protein
3 | recombinant PKCdelta | PKCalpha, delta and theta (but not PKCzeta or PKA) were able to phosphorylate recombinant NR2F6 in vitro | (but not at Ser-89) | This phosphorylation was lost after the predicted phosphorylation site at Ser-83 (but not at Ser-89) was mutated in the full-length NR2F6 protein
4 | recombinant PKCtheta | PKCalpha, delta and theta (but not PKCzeta or PKA) were able to phosphorylate recombinant NR2F6 in vitro | (but not at Ser-89) | This phosphorylation was lost after the predicted phosphorylation site at Ser-83 (but not at Ser-89) was mutated in the full-length NR2F6 protein
